The source of these data is publication PMC6016062 (Bioconjugate Chemistry, 2018).

Residues, ends and D or L forms follow the SMILES beside them. No end group written: not given here. *: point of attachment. Propyl(3-UDP) = O=c1ccn([C@@H]2O[C@H](COP(=O)(O)OP(=O)(O)OCCC*)[C@@H](O)[C@H]2O)c(=O)[nH]1; Floc = 5(6)-fluorescein carboxamide; Ahx = NCCCCCC(=O)O

One assay deals with OGT. Set-up: method as in PMID 23103942. Particulars: read-out: Kd of donor substrate; cited from earlier work.
For assay [1], the target named is T1, hOGT (Homo sapiens, UniProt O15294).
T1 sequence (O15294 312-1031 isoform O15294-3): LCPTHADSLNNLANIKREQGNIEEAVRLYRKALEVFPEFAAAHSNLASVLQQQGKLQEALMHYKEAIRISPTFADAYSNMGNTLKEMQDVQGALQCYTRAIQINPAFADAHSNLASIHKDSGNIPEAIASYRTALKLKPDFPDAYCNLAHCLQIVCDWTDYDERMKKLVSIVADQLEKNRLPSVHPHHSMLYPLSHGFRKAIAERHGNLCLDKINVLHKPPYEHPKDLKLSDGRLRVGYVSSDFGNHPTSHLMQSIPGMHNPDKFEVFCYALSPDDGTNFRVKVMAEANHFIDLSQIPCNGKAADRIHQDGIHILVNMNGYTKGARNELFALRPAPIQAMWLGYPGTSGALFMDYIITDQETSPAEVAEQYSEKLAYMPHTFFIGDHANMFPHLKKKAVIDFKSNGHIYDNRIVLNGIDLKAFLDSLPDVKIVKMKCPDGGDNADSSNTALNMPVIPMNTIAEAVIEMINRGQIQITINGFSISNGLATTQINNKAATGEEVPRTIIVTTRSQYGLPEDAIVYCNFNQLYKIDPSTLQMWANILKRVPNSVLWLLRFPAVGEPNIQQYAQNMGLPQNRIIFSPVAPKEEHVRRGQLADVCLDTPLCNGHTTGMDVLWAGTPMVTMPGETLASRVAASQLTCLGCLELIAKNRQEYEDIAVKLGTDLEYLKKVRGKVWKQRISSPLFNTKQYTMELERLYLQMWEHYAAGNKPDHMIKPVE
Put plainly: fluorescence polarimetry assay, displacement of probe 17 from hOGT. In kind it is binding. Particulars: displacement of 0.75 µM 17 from 0.8 µM hOGT. The procedure:
The derived values of Ki = 7 ± 2 μM (1) and Ki = 5 ± 2 μM (UDP-5S-GlcNAc) were in agreement with the previously reported affinities,[20],[25] validating this assay.
Next, we used this assay platform to examine the effect of the peptide sequence on the inhibitory potency of the S-linked UDP–peptide conjugates. We compiled a set of peptides derived from the known hOGT substrate proteins RB2, TAB1, CK2, and KER, as well as a previously published hOGT sequon[38] (Table 1). The topology of the heptapeptides in the 7-S5C subseries (19–23) was chosen to replicate that of the peptide 5. The nonapeptides 9-S5C (24–26) were designed with a centrally located Cys. […] The TEC reaction of allyl-UDP 4 with all substrates worked routinely well to give an array of the novel S-linked UDP–peptide conjugates 29–38 (Table 1, Table S1) that were evaluated by the modified FP assay (Table 1, Figure 5).
Fluorescence polarimetry measurements […]
probe (125 nM) in 0.1 M Tris-HCl pH 7.5, 0.15 M NaCl, 0.5 mM TCEP and 5% DMSO in a total volume of 25 µL and incubated in the dark for 30 min before read-out.
Binding affinities for ligands were determined by 17 displacement. […] Fluorescence polarisation was measured on a PHERAStar plate reader (BMG LABTECH). Data analysis was performed in GraphPad Prism 7 and binding constants for the labelled 17 and 18 were determined by fitting a one-site – Total binding curve. […]

For assay [2], the target named is human O-GlcNAc transferase (human) (UniProt O15294).
Assay [3] concerns the target T1, hOGT. Put plainly: fluorometric hOGT activity assay (UDP formation).
A further assay has as its system SH-SY5Y cells. Put plainly: total O-GlcNAcylation in cell culture, Western blot (SH-SY5Y). In kind it is cell-based. To be noted: 24 h, concentrations up to 1 mM.
The target of assay [4] is T2, human O-GlcNAc transferase (human, UniProt O15294 1-1046).
T2 sequence (looked up): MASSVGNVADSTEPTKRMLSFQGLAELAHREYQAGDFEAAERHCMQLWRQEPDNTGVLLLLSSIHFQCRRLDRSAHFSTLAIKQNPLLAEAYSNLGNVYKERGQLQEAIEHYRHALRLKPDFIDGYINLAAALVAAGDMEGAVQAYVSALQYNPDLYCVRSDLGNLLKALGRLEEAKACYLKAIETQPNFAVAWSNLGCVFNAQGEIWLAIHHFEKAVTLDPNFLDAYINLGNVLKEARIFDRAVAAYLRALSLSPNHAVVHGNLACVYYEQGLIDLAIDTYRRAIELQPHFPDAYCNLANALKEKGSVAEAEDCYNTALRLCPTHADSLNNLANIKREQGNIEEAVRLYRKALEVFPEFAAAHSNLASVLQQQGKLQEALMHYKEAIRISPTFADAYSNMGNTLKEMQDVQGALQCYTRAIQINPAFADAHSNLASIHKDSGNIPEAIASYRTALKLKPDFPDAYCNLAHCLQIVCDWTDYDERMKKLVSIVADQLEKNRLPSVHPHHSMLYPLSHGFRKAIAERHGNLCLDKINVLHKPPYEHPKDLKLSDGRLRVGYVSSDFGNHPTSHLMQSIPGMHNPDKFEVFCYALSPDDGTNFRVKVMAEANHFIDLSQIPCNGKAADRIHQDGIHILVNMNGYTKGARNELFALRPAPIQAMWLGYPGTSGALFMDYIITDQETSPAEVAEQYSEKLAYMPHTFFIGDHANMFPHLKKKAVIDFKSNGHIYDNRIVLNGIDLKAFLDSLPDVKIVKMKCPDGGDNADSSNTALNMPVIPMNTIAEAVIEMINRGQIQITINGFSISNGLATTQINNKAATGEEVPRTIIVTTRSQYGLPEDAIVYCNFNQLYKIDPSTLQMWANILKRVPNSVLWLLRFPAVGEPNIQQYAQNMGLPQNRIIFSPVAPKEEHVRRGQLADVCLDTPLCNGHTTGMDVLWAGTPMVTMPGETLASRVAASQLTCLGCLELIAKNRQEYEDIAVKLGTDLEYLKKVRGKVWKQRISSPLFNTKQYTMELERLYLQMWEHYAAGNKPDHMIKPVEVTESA
Put plainly: fluorescence polarisation; competition: displacement of the fluorescent probe 17 from hOGT by unlabeled conjugates, Ki derived. To be noted: both partners purified. For orientation: Fluorescence polarisation rises when a labelled molecule tumbles more slowly, as on binding a larger partner.

Assay [5] addresses T2, human O-GlcNAc transferase. Nature of the assay: cell-based or functional assay.
Assay [6] addresses T2, human O-GlcNAc transferase. Nature of the assay: fluorescence polarisation; competition: displacement of the fluorescent probe 17 from hOGT by unlabeled conjugates, Ki derived. Particulars: both partners purified. The source holds these as a separate data set.
The target of assay [7] is T2, human O-GlcNAc transferase. Put plainly: fluorescence polarisation; direct binding of the fluorescein-labeled conjugates 17 and 18 to hOGT. Particulars: both partners purified.

For orientation: Kd means the equilibrium constant for the complex coming apart. For `CC(=O)N[C@H]1[C@@H](OP(=O)(O)OP(=O)(O)OC[C@H]2O[C@@H](n3ccc(=O)[nH]c3=O)[C@H](O)[C@@H]2O)O[C@H](CO)[C@@H](O)[C@@H]1O` [UDP-GlcNAc], the Kd on OGT is 16 µM. For orientation: Ki means the equilibrium dissociation constant of an inhibitor or competing ligand from its target. A low value points to tighter binding. `CC(=O)N[C@H](C(=O)N[C@H](C(=O)N1CCC[C@H]1C(=O)N[C@H](C(=O)N[C@@H](CSCCCOP(=O)(O)OP(=O)(O)OC[C@H]1O[C@@H](n2ccc(=O)[nH]c2=O)[C@H](O)[C@@H]1O)C(=O)N[C@@H](CCCNC(=N)N)C(=O)N[C@@H](C)C(N)=O)C(C)C)[C@@H](C)O)C(C)C` [compound 32] (Ac-VTPVC(Propyl(3-UDP))RA-NH2) showed a Ki on hOGT [1] of 1.3 ± 0.5 µM. Still for that read-out and setting: next, `CC(=O)N[C@@H]1[C@@H](O)[C@H](O)[C@@H](CO)S[C@@H]1OP(=O)(O)OP(=O)(O)OC[C@H]1O[C@@H](n2ccc(=O)[nH]c2=O)[C@H](O)[C@@H]1O` [UDP-5S-GlcNAc, reference compound]: 5 ± 2 µM.

For “TAT-VTPVC(S-propyl-UDP)TA S-linked UDP-peptide conjugate 13”, in [2], the inhibition of hOGT activity in vitro, IC50 is 5 µM. In general, IC50 refers to the midpoint of a concentration-inhibition curve. The low end stands for greater potency in that assay, the high end for weaker potency in that assay. As to `CC(=O)N[C@@H](Cc1ccc(O)cc1)C(=O)NCC(=O)N[C@@H](CCCNC(=N)N)C(=O)N[C@@H](CCCCN)C(=O)N[C@@H](CCCCN)C(=O)N[C@@H](CCCNC(=N)N)C(=O)N[C@@H](CCCNC(=N)N)C(=O)N[C@@H](CCC(N)=O)C(=O)N[C@@H](CCCNC(=N)N)C(=O)N[C@@H](CCCNC(=N)N)C(=O)N[C@@H](CCCNC(=N)N)C(=O)NCCOCCOCC(=O)N[C@H](C(=O)N[C@H](C(=O)N1CCC[C@H]1C(=O)N[C@H](C(=O)N[C@@H](CSCCCOP(=O)(O)OP(=O)(O)OC[C@H]1O[C@@H](n2ccc(=O)[nH]c2=O)[C@H](O)[C@@H]1O)C(=O)N[C@H](C(=O)N[C@@H](C)C(N)=O)[C@@H](C)O)C(C)C)[C@@H](C)O)C(C)C` [compound 13], the half-maximal inhibitory concentration (IC50) on hOGT [3] was determined as 5 µM. Besides, the “effect on total O-GlcNAcylation in cell cultures” value in the assay on SH-SY5Y cells is on record as “neither 11 nor 13 had a noticeable effect”. Molecule PVFTC(S‑propyl‑UDP)RS [S-linked UDP-peptide conjugate 33, PVFTC(S-propyl-UDP)RS] showed an inhibitory constant (Ki) in assay [4] of 12.5 ± 7 µM. On the same count and under the same terms, next, KENSPAVTPVC(S‑propyl‑UDP)TA [S-linked UDP-peptide conjugate 38, KENSPAVTPVC(S-propyl-UDP)TA]: 1.8 ± 1.3 µM; VPTVC(S‑propyl‑UDP)TA [S-linked UDP-peptide conjugate 29, VPTVC(S-propyl-UDP)TA]: 12.8 ± 4.5 µM; PVC(S‑propyl‑UDP)TATHSLSRLH [S-linked UDP-peptide conjugate 37, PVC(S-propyl-UDP)TATHSLSRLH]: 80 ± 46 µM. In assay [4], SVPYC(S‑propyl‑UDP)SA [S-linked UDP-peptide conjugate 30, SVPYC(S-propyl-UDP)SA] gave a Ki of 2.3 ± 1.6 µM. Regarding PVFTC(S‑propyl‑UDP)RSAA [S-linked UDP-peptide conjugate 36, PVFTC(S-propyl-UDP)RSAA], the Ki in assay [4] came to 56 ± 32 µM. In [4], VTPVC(S‑propyl‑UDP)TA [S-linked UDP-peptide conjugate 6, VTPVC(S-propyl-UDP)TA] displayed a Ki of 1.3 ± 0.8 µM. Moreover, in assay [5], the “inhibition of hOGT activity, fluorometric OGT activity assay, IC50” value amounted to 2 µM.

VTPVC(S‑propyl‑UDP)SA [S-linked UDP-peptide conjugate 31, VTPVC(S-propyl-UDP)SA] yielded an inhibition constant Ki in assay [4] of 1.2 ± 1.3 µM.

The molecule VTPVS(O‑propyl‑UDP)TA [O-linked UDP-peptide conjugate 1, VTPVS(O-propyl-UDP)TA] returned a Ki in [6] of 7 ± 2 µM.

In the case of SVPYC(S‑propyl‑UDP)SAQS [S-linked UDP-peptide conjugate 35, SVPYC(S-propyl-UDP)SAQS], in assay [4], the affinity, expressed as Ki, was 15 ± 2.3 µM.

Regarding {Floc-Ahx}-VTPVC(S‑propyl‑UDP)TA [5(6)-fluorescein carboxamide (Floc) labeled S-linked UDP-peptide conjugate 17], the Kd in [7] is 1.6 µM. In turn, VTPVC(S‑propyl‑UDP)TATH [S-linked UDP-peptide conjugate 34, VTPVC(S-propyl-UDP)TATH] returned an inhibition constant (Ki) in assay [4] of 12.7 ± 2.3 µM.
